# Data from the supplement of paper PMC10567573.
# B1: KCNK9 (parent)
# chain: CFITLTTIGFGDYVALQTKGALQK
# Variants of: B1
# Experiment: protein stability index of a GFP-peptide fusion (GPS, HEK-293T) (PSI 1-6); higher = more stable
# Conditions: c terminus: a fixed tail appended
# 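Also: lentivirally expressed fusions sorted by FACS into six bins by GFP to DsRed ratio, PSI derived from sequencing read proportions per bin multiplied by bin number.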
row,Variant,protein stability index
1,CFMTLTTIGFGDYVALQTKGALQK [I3M],2.05
2,CFYTLTTIGFGDYVALQTKGALQK [I3Y],2.82
3,CFGTLTTIGFGDYVALQTKGALQK [I3G],1.68
4,CFQTLTTIGFGDYVALQTKGALQK [I3Q],2.13
5,CFIFLTTIGFGDYVALQTKGALQK [T4F],2.95
6,CFIHLTTIGFGDYVALQTKGALQK [T4H],2.23
7,CFIALTTIGFGDYVALQTKGALQK [T4A],2.99
8,CFIQLTTIGFGDYVALQTKGALQK [T4Q],1.99
9,CFIRLTTIGFGDYVALQTKGALQK [T4R],2.99
10,CFINLTTIGFGDYVALQTKGALQK [T4N],3.41
11,CFIILTTIGFGDYVALQTKGALQK [T4I],1.52
12,CFIWLTTIGFGDYVALQTKGALQK [T4W],2.91
13,CFIGLTTIGFGDYVALQTKGALQK [T4G],2.63
14,CFICLTTIGFGDYVALQTKGALQK [T4C],3.91
15,CFIPLTTIGFGDYVALQTKGALQK [T4P],2.13
16,CFIKLTTIGFGDYVALQTKGALQK [T4K],3.64
17,CFIVLTTIGFGDYVALQTKGALQK [T4V],2.25
18,CFISLTTIGFGDYVALQTKGALQK [T4S],3.03
19,CFIDLTTIGFGDYVALQTKGALQK [T4D],2.54
20,CFIELTTIGFGDYVALQTKGALQK [T4E],2.07
21,CFIMLTTIGFGDYVALQTKGALQK [T4M],3.53
22,CPITLTTIGFGDYVALQTKGALQK [F2P],2.5
23,CRITLTTIGFGDYVALQTKGALQK [F2R],2.18
24,CAITLTTIGFGDYVALQTKGALQK [F2A],1.82

row,Variant,protein stability index
1,CTITLTTIGFGDYVALQTKGALQK [F2T],2.04
2,CMITLTTIGFGDYVALQTKGALQK [F2M],1.43
3,CGITLTTIGFGDYVALQTKGALQK [F2G],2.02
4,CYITLTTIGFGDYVALQTKGALQK [F2Y],1.79
5,CLITLTTIGFGDYVALQTKGALQK [F2L],3.17
6,CIITLTTIGFGDYVALQTKGALQK [F2I],2.62
7,CHITLTTIGFGDYVALQTKGALQK [F2H],2.03
8,CEITLTTIGFGDYVALQTKGALQK [F2E],1.02
9,CKITLTTIGFGDYVALQTKGALQK [F2K],2.4
10,CQITLTTIGFGDYVALQTKGALQK [F2Q],1.82
11,CCITLTTIGFGDYVALQTKGALQK [F2C],2.23
12,CNITLTTIGFGDYVALQTKGALQK [F2N],1.61
13,CVITLTTIGFGDYVALQTKGALQK [F2V],2.51
14,CDITLTTIGFGDYVALQTKGALQK [F2D],1.99
15,CSITLTTIGFGDYVALQTKGALQK [F2S],2.72
16,CFITDTTIGFGDYVALQTKGALQK [L5D],2.42
17,CFITCTTIGFGDYVALQTKGALQK [L5C],3.26
18,CFITPTTIGFGDYVALQTKGALQK [L5P],2.17
19,CFITATTIGFGDYVALQTKGALQK [L5A],1.85
20,CFITKTTIGFGDYVALQTKGALQK [L5K],1.59
21,CFITFTTIGFGDYVALQTKGALQK [L5F],3.73
22,CFITNTTIGFGDYVALQTKGALQK [L5N],2.12
23,CFITHTTIGFGDYVALQTKGALQK [L5H],1.77
24,CFITMTTIGFGDYVALQTKGALQK [L5M],2.65

row,Variant,protein stability index
1,CFITETTIGFGDYVALQTKGALQK [L5E],2.38
2,CFITVTTIGFGDYVALQTKGALQK [L5V],2.34
3,CFITWTTIGFGDYVALQTKGALQK [L5W],2.72
4,CFITSTTIGFGDYVALQTKGALQK [L5S],1.6
5,CFITRTTIGFGDYVALQTKGALQK [L5R],2.24
6,CFITTTTIGFGDYVALQTKGALQK [L5T],1.57
7,CFITGTTIGFGDYVALQTKGALQK [L5G],2.48
8,CFITQTTIGFGDYVALQTKGALQK [L5Q],2.07
9,CFITYTTIGFGDYVALQTKGALQK [L5Y],3.03
10,CFITITTIGFGDYVALQTKGALQK [L5I],3.75
11,WFITLTTIGFGDYVALQTKGALQK [C1W],3.09
12,RFITLTTIGFGDYVALQTKGALQK [C1R],2.57
13,LFITLTTIGFGDYVALQTKGALQK [C1L],4.01
14,EFITLTTIGFGDYVALQTKGALQK [C1E],2.02
15,NFITLTTIGFGDYVALQTKGALQK [C1N],2.2
16,QFITLTTIGFGDYVALQTKGALQK [C1Q],2.53
17,KFITLTTIGFGDYVALQTKGALQK [C1K],2.05
18,DFITLTTIGFGDYVALQTKGALQK [C1D],1.57
19,MFITLTTIGFGDYVALQTKGALQK [C1M],3.33
20,PFITLTTIGFGDYVALQTKGALQK [C1P],1.66
21,IFITLTTIGFGDYVALQTKGALQK [C1I],3.52
22,SFITLTTIGFGDYVALQTKGALQK [C1S],2.4
23,HFITLTTIGFGDYVALQTKGALQK [C1H],3.02
24,GFITLTTIGFGDYVALQTKGALQK [C1G],1.26

row,Variant,protein stability index
1,TFITLTTIGFGDYVALQTKGALQK [C1T],3.37
2,AFITLTTIGFGDYVALQTKGALQK [C1A],2.27
3,CFITLTAIGFGDYVALQTKGALQK [T7A],4.42
4,CFITLTDIGFGDYVALQTKGALQK [T7D],2.15
5,CFITLTEIGFGDYVALQTKGALQK [T7E],2.94
6,CFITLGTIGFGDYVALQTKGALQK [T6G],1.69
7,CFITLITIGFGDYVALQTKGALQK [T6I],2.13
8,CFITLPTIGFGDYVALQTKGALQK [T6P],1.21
9,CFITLRTIGFGDYVALQTKGALQK [T6R],2.85
10,CFITLVTIGFGDYVALQTKGALQK [T6V],3.1
11,CFITLMTIGFGDYVALQTKGALQK [T6M],4.77
12,CFITLQTIGFGDYVALQTKGALQK [T6Q],1.51
13,CFITLCTIGFGDYVALQTKGALQK [T6C],3.41
14,CFITLLTIGFGDYVALQTKGALQK [T6L],3.01
15,CFITLDTIGFGDYVALQTKGALQK [T6D],2.36
16,CFITLYTIGFGDYVALQTKGALQK [T6Y],2.71
17,CFITLNTIGFGDYVALQTKGALQK [T6N],2.89
18,CFITLETIGFGDYVALQTKGALQK [T6E],1.83
19,CFITLSTIGFGDYVALQTKGALQK [T6S],3.54
20,CFITLFTIGFGDYVALQTKGALQK [T6F],2.57
21,CFITLHTIGFGDYVALQTKGALQK [T6H],1.44
22,CFITLKTIGFGDYVALQTKGALQK [T6K],2.11
